According to patent US20100160228:

Target: VEGFR2 (vascular endothelial growth factor receptor 2), expressed from plasmid in HEK293 cells, P35968
Sequence (P35968 20-1356): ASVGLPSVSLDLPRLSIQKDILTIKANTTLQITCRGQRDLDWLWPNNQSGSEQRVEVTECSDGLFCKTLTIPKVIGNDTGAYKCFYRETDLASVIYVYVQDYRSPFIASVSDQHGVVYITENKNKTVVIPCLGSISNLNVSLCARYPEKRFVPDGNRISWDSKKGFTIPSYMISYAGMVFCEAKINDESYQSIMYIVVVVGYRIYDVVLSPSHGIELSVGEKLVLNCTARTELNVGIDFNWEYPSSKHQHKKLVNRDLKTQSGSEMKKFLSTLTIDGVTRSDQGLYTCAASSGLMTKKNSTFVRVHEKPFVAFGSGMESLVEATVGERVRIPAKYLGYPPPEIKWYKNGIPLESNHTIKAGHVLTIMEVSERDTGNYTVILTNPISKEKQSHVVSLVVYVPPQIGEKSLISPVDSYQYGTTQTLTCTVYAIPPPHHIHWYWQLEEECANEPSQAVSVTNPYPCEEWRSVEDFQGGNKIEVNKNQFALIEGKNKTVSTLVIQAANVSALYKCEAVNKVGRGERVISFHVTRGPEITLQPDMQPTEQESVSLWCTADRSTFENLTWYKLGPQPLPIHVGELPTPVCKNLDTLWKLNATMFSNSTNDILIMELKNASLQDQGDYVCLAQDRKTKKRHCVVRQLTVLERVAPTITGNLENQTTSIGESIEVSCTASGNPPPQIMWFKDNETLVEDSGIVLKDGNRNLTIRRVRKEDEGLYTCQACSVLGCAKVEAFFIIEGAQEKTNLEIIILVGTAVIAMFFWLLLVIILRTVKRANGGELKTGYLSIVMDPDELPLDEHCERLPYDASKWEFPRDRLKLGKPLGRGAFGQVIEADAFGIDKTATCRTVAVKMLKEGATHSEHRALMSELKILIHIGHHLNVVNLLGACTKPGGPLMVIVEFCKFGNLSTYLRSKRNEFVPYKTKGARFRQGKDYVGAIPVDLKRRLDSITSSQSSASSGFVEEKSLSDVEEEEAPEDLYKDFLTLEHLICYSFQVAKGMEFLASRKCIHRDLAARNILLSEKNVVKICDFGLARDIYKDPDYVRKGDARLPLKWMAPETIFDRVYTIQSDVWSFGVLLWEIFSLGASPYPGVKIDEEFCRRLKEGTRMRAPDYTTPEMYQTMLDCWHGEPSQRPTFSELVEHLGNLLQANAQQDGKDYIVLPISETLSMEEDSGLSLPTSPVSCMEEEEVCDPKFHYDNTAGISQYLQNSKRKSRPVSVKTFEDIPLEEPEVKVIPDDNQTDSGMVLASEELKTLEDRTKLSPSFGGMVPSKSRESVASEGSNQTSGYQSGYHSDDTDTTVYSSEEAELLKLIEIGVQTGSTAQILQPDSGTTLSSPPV

B1: recombinant, purified TCPTP (T-cell protein tyrosine phosphatase) (protein)
chain: MPTTIEREFEELDTQRRWQPLYLEIRNESHDYPHRVAKFPENRNRNRYRDVSPYDHSRVKLQNAENDYINASLVDIEEAQRSYILTQGPLPNTCCHFWLMVWQQKTKAVVMLNRIVEKESVKCAQYWPTDDQEMLFKETGFSVKLLSEDVKSYYTVHLLQLENINSGETRTISHFHYTTWPDFGVPESPASFLNFLFKVRESGSLNPDHGPAVIHCSAGIGRSGTFSLVDTCLVLMEKGDDINIKQVLLNMRKYRMGLIQTPDQLRFSYMAIIEGAKCIKGDSSIQKRWKELSKEDLSPAFDHSPNKIMTEKYNGNRIGLEEEKLTGDRCTGLSSKMQDTMEENSESALRKRIREDRKATTAQKVQQMKQRLNENERKRKRPRLTDT
  in vitro dephosphorylation of VEGFR2 tyrosines 996, 1175 and 1214: TCPTP showed a striking specificity to two tyrosine residues studied (Y1214 and Y996), while tyrosine 1175 was not a TCPTP target
  in vitro dephosphorylation of isolated VEGFR2 (immunoblot with phospho-specific VEGFR2 antibodies): purified, recombinant TCPTP was able to dephosphorylate isolated VEGFR2 in vitro
